Experimental data as given in PMC4877382.

Columns and labels:
FIS (Escherichia coli) = assay: EMSA; details: EMSA: 10 mM Tris-HCl pH 8, 10 mM MgCl2, 100 mM NaCl, 10 mM KCl, 1 mM spermidine, 0.5 mM DTT, 5% glycerol, 0.08 mg/ml BSA, 50 ng poly dI-dC, 25 C, 15 min …
H-NS (Escherichia coli) = assay: EMSA; details: EMSA: 10 mM Tris-HCl pH 8, 10 mM MgCl2, 100 mM NaCl, 10 mM KCl, 1 mM spermidine, 0.5 mM DTT, 5% glycerol, 0.08 mg/ml BSA, 50 ng poly dI-dC, 25 C, 15 min …

For cspA promoter 310 bp fragment, the binding signal (FIS (Escherichia coli)) was 7 nM and the binding signal (H-NS (Escherichia coli)) was 520 nM.
